The values that follow come from article PMC11529724.

Like-named read-outs stand apart in the source and are kept apart here. A value given as a limit tells only on which side of the number the result lay.

Experiment [1] concerns the target microtubules assembled from porcine brain tubulin (porcine) (UniProt P02550).
The target is the same in experiment [2]. The source holds these as a separate data set.
Experiment [3] addresses unmodified human microtubules (tubulin from tsA201 cells) (human (endogenous in tsA201)) (UniProt P68363). The experiment in a line: TIRF microscopy binding assay.

microtubules assembled from porcine brain tubulin (porcine), sequence (P02550 whole entry, chain 1 of 2): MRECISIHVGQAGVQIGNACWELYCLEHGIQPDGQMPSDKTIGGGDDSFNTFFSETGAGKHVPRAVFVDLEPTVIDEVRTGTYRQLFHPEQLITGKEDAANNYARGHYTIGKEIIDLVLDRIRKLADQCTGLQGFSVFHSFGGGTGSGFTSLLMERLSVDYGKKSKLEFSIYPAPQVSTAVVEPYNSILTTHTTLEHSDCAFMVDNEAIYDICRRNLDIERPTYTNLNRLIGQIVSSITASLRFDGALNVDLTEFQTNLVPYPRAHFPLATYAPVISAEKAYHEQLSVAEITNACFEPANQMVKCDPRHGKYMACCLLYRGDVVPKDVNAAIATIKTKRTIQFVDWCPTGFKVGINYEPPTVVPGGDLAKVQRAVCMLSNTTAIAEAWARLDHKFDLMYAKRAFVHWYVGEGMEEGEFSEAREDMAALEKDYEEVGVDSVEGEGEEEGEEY
microtubules assembled from porcine brain tubulin (porcine), sequence (P02554 whole entry, chain 2 of 2, further chain): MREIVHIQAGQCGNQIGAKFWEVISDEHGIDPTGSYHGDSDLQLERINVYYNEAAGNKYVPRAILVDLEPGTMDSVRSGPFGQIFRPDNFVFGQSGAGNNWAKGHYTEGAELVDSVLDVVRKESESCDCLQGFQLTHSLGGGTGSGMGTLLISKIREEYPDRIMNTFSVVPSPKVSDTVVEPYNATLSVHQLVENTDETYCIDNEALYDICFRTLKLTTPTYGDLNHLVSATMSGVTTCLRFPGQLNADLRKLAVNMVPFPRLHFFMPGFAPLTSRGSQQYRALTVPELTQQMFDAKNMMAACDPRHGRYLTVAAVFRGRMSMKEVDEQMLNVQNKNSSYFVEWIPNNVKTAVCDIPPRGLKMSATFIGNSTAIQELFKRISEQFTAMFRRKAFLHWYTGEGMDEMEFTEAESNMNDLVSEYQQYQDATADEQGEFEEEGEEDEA

B1: TTLL6 Y479A (enzyme)
chain: GKKKRKKKRLVINLSNCRYDSVRRAAQQYGLREAGDNDDWTLYWTDYSVSLERVMEMKSYQKINHFPGMSEICRKDLLARNMSRMLKLFPKDFHFFPRTWCLPADWGDLQTYSRTRKNKTYICKPDSGCQGRGIFITRSVKEIKPGEDMICQLYISKPFIIDGFKFDLRVYVLVTSCDPLRVFVYNEGLARFATTSYSHPNLDNLDEICMHLTNYSINKHSSNFVQDAFSGSKRKLSTFNSYMKTHGYDVEQIWRGIEDVIIKTLISAHPVIKHNYHTCFPSHTLNSACFEILGFDILLDRKLKPWLLEVNHSPSFSTDSKLDKEVKDSLLYDALVLINLGNCDKKKVLEEERQRGRFLQQCPNREIRLEEVKGFQAMRLQKTEEYEKKNCGGFRLIYPGLNLEKYDKFFQDNSSLFQNTVASRARELAARQLIQELRQKQEKKVFLKKARK
B1: the glutamylation activity with taxol-stabilized MTs, normalized to WT in experiment [1] is 35 % of WT.

B2: TTLL6 Val422 to alanine (enzyme)
chain: GKKKRKKKRLVINLSNCRYDSVRRAAQQYGLREAGDNDDWTLYWTDYSVSLERVMEMKSYQKINHFPGMSEICRKDLLARNMSRMLKLFPKDFHFFPRTWCLPADWGDLQTYSRTRKNKTYICKPDSGCQGRGIFITRSVKEIKPGEDMICQLYISKPFIIDGFKFDLRVYVLVTSCDPLRVFVYNEGLARFATTSYSHPNLDNLDEICMHLTNYSINKHSSNFVQDAFSGSKRKLSTFNSYMKTHGYDVEQIWRGIEDVIIKTLISAHPVIKHNYHTCFPSHTLNSACFEILGFDILLDRKLKPWLLEVNHSPSFSTDSKLDKEVKDSLLYDALVLINLGNCDKKKVLEEERQRGRFLQQCPNREIRLEEAKGFQAMRLQKTEEYEKKNCGGFRLIYPGLNLEKYDKFFQDNSSLFQNTVASRARELYARQLIQELRQKQEKKVFLKKARK
On to B2, for which, in experiment [2], the glutamylation activity with taxol-stabilized MTs, normalized to WT is < 10 % of WT.

B3: TTLL6 F425 to alanine (enzyme)
chain: GKKKRKKKRLVINLSNCRYDSVRRAAQQYGLREAGDNDDWTLYWTDYSVSLERVMEMKSYQKINHFPGMSEICRKDLLARNMSRMLKLFPKDFHFFPRTWCLPADWGDLQTYSRTRKNKTYICKPDSGCQGRGIFITRSVKEIKPGEDMICQLYISKPFIIDGFKFDLRVYVLVTSCDPLRVFVYNEGLARFATTSYSHPNLDNLDEICMHLTNYSINKHSSNFVQDAFSGSKRKLSTFNSYMKTHGYDVEQIWRGIEDVIIKTLISAHPVIKHNYHTCFPSHTLNSACFEILGFDILLDRKLKPWLLEVNHSPSFSTDSKLDKEVKDSLLYDALVLINLGNCDKKKVLEEERQRGRFLQQCPNREIRLEEVKGAQAMRLQKTEEYEKKNCGGFRLIYPGLNLEKYDKFFQDNSSLFQNTVASRARELYARQLIQELRQKQEKKVFLKKARK
B3 came in with a glutamylation activity with taxol-stabilized MTs, increase against WT in experiment [2] of 59 % increase.

B4: TTLL6 K490 to glutamate (enzyme)
chain: GKKKRKKKRLVINLSNCRYDSVRRAAQQYGLREAGDNDDWTLYWTDYSVSLERVMEMKSYQKINHFPGMSEICRKDLLARNMSRMLKLFPKDFHFFPRTWCLPADWGDLQTYSRTRKNKTYICKPDSGCQGRGIFITRSVKEIKPGEDMICQLYISKPFIIDGFKFDLRVYVLVTSCDPLRVFVYNEGLARFATTSYSHPNLDNLDEICMHLTNYSINKHSSNFVQDAFSGSKRKLSTFNSYMKTHGYDVEQIWRGIEDVIIKTLISAHPVIKHNYHTCFPSHTLNSACFEILGFDILLDRKLKPWLLEVNHSPSFSTDSKLDKEVKDSLLYDALVLINLGNCDKKKVLEEERQRGRFLQQCPNREIRLEEVKGFQAMRLQKTEEYEKKNCGGFRLIYPGLNLEKYDKFFQDNSSLFQNTVASRARELYARQLIQELRQEQEKKVFLKKARK
Consider B4, for which, in experiment [1], the glutamylation activity with taxol-stabilized MTs, normalized to WT was < 20 % of WT.

B5: TTLL6 Leu409 to alanine (enzyme)
chain: GKKKRKKKRLVINLSNCRYDSVRRAAQQYGLREAGDNDDWTLYWTDYSVSLERVMEMKSYQKINHFPGMSEICRKDLLARNMSRMLKLFPKDFHFFPRTWCLPADWGDLQTYSRTRKNKTYICKPDSGCQGRGIFITRSVKEIKPGEDMICQLYISKPFIIDGFKFDLRVYVLVTSCDPLRVFVYNEGLARFATTSYSHPNLDNLDEICMHLTNYSINKHSSNFVQDAFSGSKRKLSTFNSYMKTHGYDVEQIWRGIEDVIIKTLISAHPVIKHNYHTCFPSHTLNSACFEILGFDILLDRKLKPWLLEVNHSPSFSTDSKLDKEVKDSLLYDALVLINLGNCDKKKVLEEERQRGRFAQQCPNREIRLEEVKGFQAMRLQKTEEYEKKNCGGFRLIYPGLNLEKYDKFFQDNSSLFQNTVASRARELYARQLIQELRQKQEKKVFLKKARK
Regarding B5, the glutamylation activity with taxol-stabilized MTs, normalized to WT in experiment [2] is < 10 % of WT.

B6: TTLL6 F408 to alanine (enzyme)
chain: GKKKRKKKRLVINLSNCRYDSVRRAAQQYGLREAGDNDDWTLYWTDYSVSLERVMEMKSYQKINHFPGMSEICRKDLLARNMSRMLKLFPKDFHFFPRTWCLPADWGDLQTYSRTRKNKTYICKPDSGCQGRGIFITRSVKEIKPGEDMICQLYISKPFIIDGFKFDLRVYVLVTSCDPLRVFVYNEGLARFATTSYSHPNLDNLDEICMHLTNYSINKHSSNFVQDAFSGSKRKLSTFNSYMKTHGYDVEQIWRGIEDVIIKTLISAHPVIKHNYHTCFPSHTLNSACFEILGFDILLDRKLKPWLLEVNHSPSFSTDSKLDKEVKDSLLYDALVLINLGNCDKKKVLEEERQRGRALQQCPNREIRLEEVKGFQAMRLQKTEEYEKKNCGGFRLIYPGLNLEKYDKFFQDNSSLFQNTVASRARELYARQLIQELRQKQEKKVFLKKARK
B6: the glutamylation activity with taxol-stabilized MTs, increase against WT in experiment [2] turned out to be 70 % increase.

B7: Atto488-labeled TTLL6 (enzyme)
chain: GKKKRKKKRLVINLSNCRYDSVRRAAQQYGLREAGDNDDWTLYWTDYSVSLERVMEMKSYQKINHFPGMSEICRKDLLARNMSRMLKLFPKDFHFFPRTWCLPADWGDLQTYSRTRKNKTYICKPDSGCQGRGIFITRSVKEIKPGEDMICQLYISKPFIIDGFKFDLRVYVLVTSCDPLRVFVYNEGLARFATTSYSHPNLDNLDEICMHLTNYSINKHSSNFVQDAFSGSKRKLSTFNSYMKTHGYDVEQIWRGIEDVIIKTLISAHPVIKHNYHTCFPSHTLNSACFEILGFDILLDRKLKPWLLEVNHSPSFSTDSKLDKEVKDSLLYDALVLINLGNCDKKKVLEEERQRGRFLQQCPNREIRLEEVKGFQAMRLQKTEEYEKKNCGGFRLIYPGLNLEKYDKFFQDNSSLFQNTVASRARELYARQLIQELRQKQEKKVFLKKARK
modifications: Atto488 on the N-terminus, through the synthetic peptide NH2-(Atto488)-… ligated with sortase
One may read the Kd as the free concentration of one partner at which half of the binding sites on the other are occupied at equilibrium, for simple one-to-one binding. A high value points to lower affinity. Molecule B7 registered a dissociation constant (Kd) in experiment [3] of 210 nM.
